Experimental data reported in publication PMC2563026.

Assays:
[1] = target: CXCR4, endogenous on feline cells (feline (endogenous in MCC)) (UniProt P56498)
[2] = target: CXCR4, endogenous on feline cells (feline (endogenous in MCC)) (UniProt P56498); assay: flow cytometry on cells; MCC cells stably transduced with fCD134, the CRD1 chimera, human CD134 or vector only were incubated with Fc-SU fusion proteins; bound protein detected with PE-anti-human IgG Fc; 10,000 events
[3] = target: chimeric receptor bearing feline CD134 CRD1 in the context of human CD134, on cells (feline | human)

Sequence of UniProt P56498 (P56498 whole entry, the tested form may be a part): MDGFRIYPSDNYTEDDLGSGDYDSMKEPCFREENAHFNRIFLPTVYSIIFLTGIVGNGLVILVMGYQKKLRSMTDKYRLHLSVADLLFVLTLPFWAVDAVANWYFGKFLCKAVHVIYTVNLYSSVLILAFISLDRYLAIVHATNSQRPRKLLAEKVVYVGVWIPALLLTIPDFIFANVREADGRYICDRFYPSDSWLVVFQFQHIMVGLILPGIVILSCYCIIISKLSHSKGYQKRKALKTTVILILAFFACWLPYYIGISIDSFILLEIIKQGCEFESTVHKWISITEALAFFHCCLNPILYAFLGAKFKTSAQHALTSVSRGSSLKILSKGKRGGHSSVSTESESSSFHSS

Row | Substance | entry of HIV(FIV) pseudotypes into MYA-1 cells with the CXCR4 antagonist AMD3100 at 0.1 μg/ml, fold reduction [1] [fold] | infection of MCC-CRD1 cells by HIV(FIV) luciferase pseudotypes, fold reduction [3] [fold] | other results
1 | FIV CPG41 Env, wild type, on HIV(FIV) luciferase pseudotypes (natural protein) | 5 |  | 
2 | FIV GL8 Env SU-Fc fusion protein, wild type |  |  | percent binding of Fc-SU (human CD134-expressing MCC cells) [2]: 17.2%
3 | FIV GL8 Env T271I, on HIV(FIV) luciferase pseudotypes (natural protein) |  | 27 | 
4 | FIV GL8 Env Δ2N double mutant (T271I and N342Y), on HIV(FIV) luciferase pseudotypes (natural protein) |  | 47 | 
5 | FIV GL8 Env, wild type, on HIV(FIV) luciferase pseudotypes (natural protein) | 100 |  | infection of MCC-CRD1 cells by HIV(FIV) luciferase pseudotypes, fold less efficient than on MCC cells expressing CD134 [3]: 300 fold
